In US20240132624A1 (Ablynx, published 2024):
Numbering of substitutions follows the chain as printed.

Key:
human FcRn/b2M [1] = biological target: T1, human FcRn/b2M (human, UniProt P61769 21-119, biotinylated); assay: SPR pH 7.4;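 further: surface plasmon resonance kinetics, periplasmic extracts diluted 1:10 flowed over immobilized target at 25 °C, 120 s association then 600–3600 s dissociation, buffer with 150 mM NaCl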
T1 construct: bought recombinant biotinylated protein (ACRO FCM-H82W4 or Immunitrack ITF01); also called hFcRn; hFcRn/hb2M
T1 sequence (chain, as listed by the source limits assumed, chain 1 of 2): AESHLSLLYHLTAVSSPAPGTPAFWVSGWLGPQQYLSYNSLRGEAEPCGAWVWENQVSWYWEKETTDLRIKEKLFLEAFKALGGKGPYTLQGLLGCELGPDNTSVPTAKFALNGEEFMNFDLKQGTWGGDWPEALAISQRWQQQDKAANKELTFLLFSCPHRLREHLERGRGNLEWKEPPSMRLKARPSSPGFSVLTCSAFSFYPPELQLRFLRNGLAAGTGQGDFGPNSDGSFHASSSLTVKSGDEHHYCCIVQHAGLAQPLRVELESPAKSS
T1 sequence (P61769 21-119 limits assumed, chain 2 of 2): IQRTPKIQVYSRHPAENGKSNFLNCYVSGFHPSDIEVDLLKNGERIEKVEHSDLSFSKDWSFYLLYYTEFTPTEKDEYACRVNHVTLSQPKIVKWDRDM
Protocol: (§1) All kinetic measurements have been performed on ProteOn XPR36 (BioRad Laboratories, Inc.), MASS-2 (Sierra sensors, Gmbh) or SPR-32 (Bruker Corporation). […] The phytip purified periplasmic extracts were diluted 1:10 in running buffer (CPA+150 mM NaCl+0.005% Tw20 at pH 5.5, pH 6.0 or pH 7.4) and injected over the ligand surfaces (association: 120 s at 45 μL/min; dissociation: 600s-3600 s at 45 μL/min). Experiments were carried out at 25° C.

cyno FcRn/b2M [2] = biological target: T2, cyno FcRn/b2M (cyno, UniProt Q8SPV9 24-297; Q8SPW0 21-119, biotinylated); assay: SPR pH 7.4;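 further: surface plasmon resonance kinetics, periplasmic extracts diluted 1:10 flowed over immobilized target at 25 °C, 120 s association then 600–3600 s dissociation, buffer with 150 mM NaCl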
T2 construct: bought recombinant biotinylated protein (Immunitrack ITF05 or ACRO FCM-C82W5); also called cFcRn; cFcRn/cb2M
T2 sequence (Q8SPV9 24-297 limits assumed, chain 1 of 2): as the sequence (chain, as listed by the source limits assumed, chain 1 of 2) above, with N39D, E44Q, G99S, S189G, S190N, L217M, S269T counted along it
T2 sequence (Q8SPW0 21-119 limits assumed, chain 2 of 2): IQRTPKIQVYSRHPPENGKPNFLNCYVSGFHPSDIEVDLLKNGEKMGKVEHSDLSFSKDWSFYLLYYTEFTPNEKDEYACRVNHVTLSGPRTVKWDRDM
Protocol: as §1

human FcRn/b2M [3] = biological target: T1, human FcRn/b2M; assay: SPR pH 6.0;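 further: surface plasmon resonance kinetics at 25 °C, diluted periplasmic extracts injected over immobilized ligand surfaces, 120 s association then 600–3600 s dissociation, running buffer containing 150 mM NaCl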
Protocol: as §1

cyno FcRn/b2M [4] = biological target: T2, cyno FcRn/b2M; assay: SPR pH 6.0;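 further: surface plasmon resonance kinetics at 25 °C, diluted periplasmic extracts injected over immobilized ligand surfaces, 120 s association then 600–3600 s dissociation, running buffer containing 150 mM NaCl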
Protocol: as §1

human FcRn/b2M [5] = biological target: T1, human FcRn/b2M; assay: SPR off-rate; pH 7.4 vs pH 6.0;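 further: surface plasmon resonance with diluted periplasmic extracts flowed over ligand surfaces, 120 s association and 600–3600 s dissociation at 25 °C, running buffer containing 150 mM NaCl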
Protocol: as §1

cyno FcRn/b2M [6] = biological target: T2, cyno FcRn/b2M; assay: SPR off-rate; pH 7.4 vs pH 6.0;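 further: surface plasmon resonance with diluted periplasmic extracts flowed over ligand surfaces, 120 s association and 600–3600 s dissociation at 25 °C, running buffer containing 150 mM NaCl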
Protocol: as §1

B1: T0263018B11 T57F (VHH, name in Kabat numbering)
VHH: EVQLVESGGGVVQPGGSLRLSCAASGFTFSSYAMYWVRQAPGKGLEWVSAISSGGGSFDYADSVKGRFTISRDNSKNTLYLQMNSLRPEDTALYYCAADTLYTSLTWYSYWGQGTLVTVSS
notes: FLAG3-His6 tagged
koff (human FcRn/b2M [1]): 0.033 s⁻¹ | koff (cyno FcRn/b2M [2]): 0.036 s⁻¹ | koff (human FcRn/b2M [3]): 0.00099 s⁻¹ | koff (cyno FcRn/b2M [4]): 0.00084 s⁻¹ | kd ratio pH 7.4/6.0 (human FcRn/b2M [5]): 33 | kd ratio pH 7.4/6.0 (cyno FcRn/b2M [6]): 43

B2: T0263018B11 T96Q (VHH, name in Kabat numbering)
VHH: B1 VHH with F58T, T100Q
notes: FLAG3-His6 tagged
koff (human FcRn/b2M [1]): 0.091 s⁻¹ | koff (cyno FcRn/b2M [2]): 0.092 s⁻¹ | koff (human FcRn/b2M [3]): 0.0026 s⁻¹ | koff (cyno FcRn/b2M [4]): 0.002 s⁻¹ | kd ratio pH 7.4/6.0 (human FcRn/b2M [5]): 35 | kd ratio pH 7.4/6.0 (cyno FcRn/b2M [6]): 46

B3: T0263018B11 T96V (VHH, name in Kabat numbering)
VHH: B1 VHH with F58T, T100V
notes: FLAG3-His6 tagged
koff (human FcRn/b2M [1]): 0.021 s⁻¹ | koff (cyno FcRn/b2M [2]): 0.014 s⁻¹ | koff (human FcRn/b2M [3]): 0.00047 s⁻¹ | koff (cyno FcRn/b2M [4]): 0.00036 s⁻¹ | kd ratio pH 7.4/6.0 (human FcRn/b2M [5]): 45 | kd ratio pH 7.4/6.0 (cyno FcRn/b2M [6]): 40

B4: T0263018B11 W100cL (VHH, name in Kabat numbering)
VHH: B1 VHH with F58T, W107L
notes: FLAG3-His6 tagged
koff (human FcRn/b2M [1]): 0.46 s⁻¹ | koff (cyno FcRn/b2M [2]): 0.43 s⁻¹ | koff (human FcRn/b2M [3]): 0.0064 s⁻¹ | koff (cyno FcRn/b2M [4]): 0.0051 s⁻¹ | kd ratio pH 7.4/6.0 (human FcRn/b2M [5]): 72 | kd ratio pH 7.4/6.0 (cyno FcRn/b2M [6]): 84

B5: T0263018B11 T57W (VHH, name in Kabat numbering)
VHH: B1 VHH with F58W
notes: FLAG3-His6 tagged
koff (human FcRn/b2M [1]): 0.033 s⁻¹ | koff (cyno FcRn/b2M [2]): 0.028 s⁻¹ | koff (human FcRn/b2M [3]): 0.0009 s⁻¹ | koff (cyno FcRn/b2M [4]): 0.00073 s⁻¹ | kd ratio pH 7.4/6.0 (human FcRn/b2M [5]): 37 | kd ratio pH 7.4/6.0 (cyno FcRn/b2M [6]): 38

B6: T0263018B11 T96S (VHH, name in Kabat numbering)
VHH: B1 VHH with F58T, T100S
notes: FLAG3-His6 tagged
koff (human FcRn/b2M [1]): 0.053 s⁻¹ | koff (cyno FcRn/b2M [2]): 0.053 s⁻¹ | koff (human FcRn/b2M [3]): 0.0016 s⁻¹ | koff (cyno FcRn/b2M [4]): 0.0012 s⁻¹ | kd ratio pH 7.4/6.0 (human FcRn/b2M [5]): 33 | kd ratio pH 7.4/6.0 (cyno FcRn/b2M [6]): 44

B7: T0263018B11 T57P (VHH, name in Kabat numbering)
VHH: B1 VHH with F58P
notes: FLAG3-His6 tagged
koff (human FcRn/b2M [1]): 0.045 s⁻¹ | koff (cyno FcRn/b2M [2]): 0.054 s⁻¹ | koff (human FcRn/b2M [3]): 0.0015 s⁻¹ | koff (cyno FcRn/b2M [4]): 0.0013 s⁻¹ | kd ratio pH 7.4/6.0 (human FcRn/b2M [5]): 30 | kd ratio pH 7.4/6.0 (cyno FcRn/b2M [6]): 42

B8: T0263018B11 W100cA (VHH, name in Kabat numbering)
VHH: B1 VHH with F58T, W107A
notes: FLAG3-His6 tagged
koff (human FcRn/b2M [1]): 0.5 s⁻¹ | koff (cyno FcRn/b2M [2]): 0.5 s⁻¹ | koff (human FcRn/b2M [3]): 0.01 s⁻¹ | koff (cyno FcRn/b2M [4]): 0.0062 s⁻¹ | kd ratio pH 7.4/6.0 (human FcRn/b2M [5]): 50 | kd ratio pH 7.4/6.0 (cyno FcRn/b2M [6]): 81

B9: T0263018B11 T96Y (VHH, name in Kabat numbering)
VHH: B1 VHH with F58T, T100Y
notes: FLAG3-His6 tagged
koff (human FcRn/b2M [1]): 0.024 s⁻¹ | koff (cyno FcRn/b2M [2]): 0.017 s⁻¹ | koff (human FcRn/b2M [3]): 0.00054 s⁻¹ | koff (cyno FcRn/b2M [4]): 0.00035 s⁻¹ | kd ratio pH 7.4/6.0 (human FcRn/b2M [5]): 45 | kd ratio pH 7.4/6.0 (cyno FcRn/b2M [6]): 50

B10: T0263018B11 T57V (VHH, name in Kabat numbering)
VHH: B1 VHH with F58V
notes: FLAG3-His6 tagged
koff (human FcRn/b2M [1]): 0.034 s⁻¹ | koff (cyno FcRn/b2M [2]): 0.027 s⁻¹ | koff (human FcRn/b2M [3]): 0.00077 s⁻¹ | koff (cyno FcRn/b2M [4]): 0.00064 s⁻¹ | kd ratio pH 7.4/6.0 (human FcRn/b2M [5]): 44 | kd ratio pH 7.4/6.0 (cyno FcRn/b2M [6]): 42

B11: T0263018B11 T57L (VHH, name in Kabat numbering)
VHH: B1 VHH with F58L
notes: FLAG3-His6 tagged
koff (human FcRn/b2M [1]): 0.04 s⁻¹ | koff (cyno FcRn/b2M [2]): 0.035 s⁻¹ | koff (human FcRn/b2M [3]): 0.0011 s⁻¹ | koff (cyno FcRn/b2M [4]): 0.0009 s⁻¹ | kd ratio pH 7.4/6.0 (human FcRn/b2M [5]): 37 | kd ratio pH 7.4/6.0 (cyno FcRn/b2M [6]): 39

B12: T0263018B11 W100cF (VHH, name in Kabat numbering)
VHH: B1 VHH with F58T, W107F
notes: FLAG3-His6 tagged
koff (human FcRn/b2M [1]): 0.16 s⁻¹ | koff (cyno FcRn/b2M [2]): 0.15 s⁻¹ | koff (human FcRn/b2M [3]): 0.0036 s⁻¹ | koff (cyno FcRn/b2M [4]): 0.0024 s⁻¹ | kd ratio pH 7.4/6.0 (human FcRn/b2M [5]): 44 | kd ratio pH 7.4/6.0 (cyno FcRn/b2M [6]): 63

B13: T0263018B11 W100cG (VHH, name in Kabat numbering)
VHH: B1 VHH with F58T, W107G
notes: FLAG3-His6 tagged
koff (human FcRn/b2M [1]): 0.42 s⁻¹ | koff (cyno FcRn/b2M [2]): 0.38 s⁻¹ | koff (human FcRn/b2M [3]): 0.0092 s⁻¹ | koff (cyno FcRn/b2M [4]): 0.0051 s⁻¹ | kd ratio pH 7.4/6.0 (human FcRn/b2M [5]): 46 | kd ratio pH 7.4/6.0 (cyno FcRn/b2M [6]): 75

B14: T0263018B11 T57S (VHH, name in Kabat numbering)
VHH: B1 VHH with F58S
notes: FLAG3-His6 tagged
koff (human FcRn/b2M [1]): 0.041 s⁻¹ | koff (cyno FcRn/b2M [2]): 0.029 s⁻¹ | koff (human FcRn/b2M [3]): 0.0011 s⁻¹ | koff (cyno FcRn/b2M [4]): 0.00071 s⁻¹ | kd ratio pH 7.4/6.0 (human FcRn/b2M [5]): 39 | kd ratio pH 7.4/6.0 (cyno FcRn/b2M [6]): 41

B15: T0263018B11 T96M (VHH, name in Kabat numbering)
VHH: B1 VHH with F58T, T100M
notes: FLAG3-His6 tagged
koff (human FcRn/b2M [1]): 0.067 s⁻¹ | koff (cyno FcRn/b2M [2]): 0.047 s⁻¹ | koff (human FcRn/b2M [3]): 0.0016 s⁻¹ | koff (cyno FcRn/b2M [4]): 0.00097 s⁻¹ | kd ratio pH 7.4/6.0 (human FcRn/b2M [5]): 42 | kd ratio pH 7.4/6.0 (cyno FcRn/b2M [6]): 49

B16: T0263018B11 T57I (VHH, name in Kabat numbering)
VHH: B1 VHH with F58I
notes: FLAG3-His6 tagged
koff (human FcRn/b2M [1]): 0.049 s⁻¹ | koff (cyno FcRn/b2M [2]): 0.06 s⁻¹ | koff (human FcRn/b2M [3]): 0.0015 s⁻¹ | koff (cyno FcRn/b2M [4]): 0.0014 s⁻¹ | kd ratio pH 7.4/6.0 (human FcRn/b2M [5]): 33 | kd ratio pH 7.4/6.0 (cyno FcRn/b2M [6]): 43

B17: T0263018B11 T57N (VHH, name in Kabat numbering)
VHH: B1 VHH with F58N
notes: FLAG3-His6 tagged
koff (human FcRn/b2M [1]): 0.037 s⁻¹ | koff (cyno FcRn/b2M [2]): 0.03 s⁻¹ | koff (human FcRn/b2M [3]): 0.00086 s⁻¹ | koff (cyno FcRn/b2M [4]): 0.00062 s⁻¹ | kd ratio pH 7.4/6.0 (human FcRn/b2M [5]): 43 | kd ratio pH 7.4/6.0 (cyno FcRn/b2M [6]): 48

B18: T0263018B11 W100cD (VHH, name in Kabat numbering)
VHH: B1 VHH with F58T, W107D
notes: FLAG3-His6 tagged
koff (human FcRn/b2M [1]): 0.14 s⁻¹ | koff (cyno FcRn/b2M [2]): 0.13 s⁻¹ | koff (human FcRn/b2M [3]): 0.0073 s⁻¹ | koff (cyno FcRn/b2M [4]): 0.003 s⁻¹ | kd ratio pH 7.4/6.0 (human FcRn/b2M [5]): 19 | kd ratio pH 7.4/6.0 (cyno FcRn/b2M [6]): 45

B19: T0263018B11 T96F (VHH, name in Kabat numbering)
VHH: B1 VHH with F58T, T100F
notes: FLAG3-His6 tagged
koff (human FcRn/b2M [1]): 0.16 s⁻¹ | koff (cyno FcRn/b2M [2]): 0.2 s⁻¹ | koff (human FcRn/b2M [3]): 0.0031 s⁻¹ | koff (cyno FcRn/b2M [4]): 0.0024 s⁻¹ | kd ratio pH 7.4/6.0 (human FcRn/b2M [5]): 52 | kd ratio pH 7.4/6.0 (cyno FcRn/b2M [6]): 83

B20: T0263018B11 T100bL (VHH, name in Kabat numbering)
VHH: B1 VHH with F58T, T106L
notes: FLAG3-His6 tagged
koff (human FcRn/b2M [1]): 0.14 s⁻¹ | koff (cyno FcRn/b2M [2]): 0.18 s⁻¹ | koff (human FcRn/b2M [3]): 0.0037 s⁻¹ | koff (cyno FcRn/b2M [4]): 0.0032 s⁻¹ | kd ratio pH 7.4/6.0 (human FcRn/b2M [5]): 38 | kd ratio pH 7.4/6.0 (cyno FcRn/b2M [6]): 56

B21: T0263018B11 T100bE (VHH, name in Kabat numbering)
VHH: B1 VHH with F58T, T106E
notes: FLAG3-His6 tagged
koff (human FcRn/b2M [1]): 0.032 s⁻¹ | koff (cyno FcRn/b2M [2]): 0.025 s⁻¹ | koff (human FcRn/b2M [3]): 0.00071 s⁻¹ | koff (cyno FcRn/b2M [4]): 0.00049 s⁻¹ | kd ratio pH 7.4/6.0 (human FcRn/b2M [5]): 45 | kd ratio pH 7.4/6.0 (cyno FcRn/b2M [6]): 51

B22: T0263018B11 T96A (VHH, name in Kabat numbering)
VHH: B1 VHH with F58T, T100A
notes: FLAG3-His6 tagged
koff (human FcRn/b2M [1]): 0.14 s⁻¹ | koff (cyno FcRn/b2M [2]): 0.16 s⁻¹ | koff (human FcRn/b2M [3]): 0.0039 s⁻¹ | koff (cyno FcRn/b2M [4]): 0.0029 s⁻¹ | kd ratio pH 7.4/6.0 (human FcRn/b2M [5]): 36 | kd ratio pH 7.4/6.0 (cyno FcRn/b2M [6]): 55

B23: T0263018B11 W100cQ (VHH, name in Kabat numbering)
VHH: B1 VHH with F58T, W107Q
notes: FLAG3-His6 tagged
koff (human FcRn/b2M [1]): 0.5 s⁻¹ | koff (cyno FcRn/b2M [2]): 0.5 s⁻¹ | koff (human FcRn/b2M [3]): 0.009 s⁻¹ | koff (cyno FcRn/b2M [4]): 0.0059 s⁻¹ | kd ratio pH 7.4/6.0 (human FcRn/b2M [5]): 56 | kd ratio pH 7.4/6.0 (cyno FcRn/b2M [6]): 85

B24: T0263018B11 T96I (VHH, name in Kabat numbering)
VHH: B1 VHH with F58T, T100I
notes: FLAG3-His6 tagged
koff (human FcRn/b2M [1]): 0.036 s⁻¹ | koff (cyno FcRn/b2M [2]): 0.024 s⁻¹ | koff (human FcRn/b2M [3]): 0.00069 s⁻¹ | koff (cyno FcRn/b2M [4]): 0.00042 s⁻¹ | kd ratio pH 7.4/6.0 (human FcRn/b2M [5]): 52 | kd ratio pH 7.4/6.0 (cyno FcRn/b2M [6]): 57
